According to US8980255B2, “Treatment of autoimmune disease by modulating annexin-1 (lipocortin 1)” (Queen Mary & Westfield College, priority 2008, dated 2015):
Where no end group is shown, it is not given here.

B1: hrAnx-A1: Endotoxin-free human recombinant Anx-A1 (Annexin-1, 37-kDa protein) (protein, UniProt P04083 1-346, looked up)
chain: MAMVSEFLKQAWFIENEEQEYVQTVKSSKGGPGSAVSPYPTFNPSSDVAALHKAIMVKGVDEATIIDILTKRNNAQRQQIKAAYLQETGKPLDETLKKALTGHLEEVVLALLKTPAQFDADELRAAMKGLGTDEDTLIEILASRTNKEIRDINRVYREELKRDLAKDITSDTSGDFRNALLSLAKGDRSEDFGVNEDLADSDARALYEAGERRKGTDVNVFNTILTTRSYPQLRRVFQKYTKYSKHDMNKVLDLELKGDIEKCLTAIVKCATSKPAFFAEKLHQAMKGVGTRHKALIRIMVSRSEIDMNDIKAFYQKMYGISLCQAILDETKGDYEKILVALCGGN
modifications: full-length

How the values were obtained:
[1] = test system: murine naïve lymph node T cells; assay: T cell proliferation (3H-thymidine incorporation), anti-CD3/CD28 stimulation; assay type: cell-based
Protocol: Primary murine T cells were prepared from lymph nodes by negative selection. Briefly, axillary, inguinal, and mesenteric lymph nodes were teased apart to make a single cell suspension, then washed and layered over Ficoll. The buffy coat was washed 2 times and then incubated with the antibody mix and the magnetic beads following the manufacturer's instructions (mouse T-cell negative isolation kit; Dynal, Bromborough, United Kingdom). In some experiments, cells were further purified to obtain naive CD62L^+ CD4^+ T cells by using the Miltenyi Biotec CD62L^+ CD4^+ T-cell isolation kit. Th0 conditions were created by T cells for 4 days in 6-well plates precoated with anti-CD3 (5 μg/mL) and anti-CD28 (5 μg/mL) in complete RPMI medium (10% fetal calf serum [FCS], 2 mM L-glutamine, and 100 units mL^−1 gentamycin) containing murine IL-2 (20 U/mL). […]
Purified lymph node T cells (10^5 cells/mL) were incubated with medium alone or with different concentrations of hrAnx-A1 for 2 hours at 37° C. in Eppendorf tubes. […] After 18 hours, cultures were pulsed for 8 hours with 1 μCi (3.7×10^4 Bg) [^3H]-thymidine (Amersham Pharmacia Biotech, Piscataway, N.J.) and incorporated radioactivity was measured by automated scintillation counter (Packard Instruments, Pangbourne, United Kingdom). […]

[2] = test system: murine naïve lymph node T cells; assay: IL-2 production from anti-CD3/CD28 stimulated T cells; assay type: cell-based
Protocol: The effects of an N-terminal peptide of hrAnx-A1 (peptide Ac 2-26) and of full length hrAnx-A1 on T cell activation were investigated. IL-2 production from murine naïve lymph node T cells was stimulated with 0.6, 1.25 or 2.5 μg/ml of anti-CD3/CD28 in the presence or absence of full length hrAnx-A1 (300 nM) or the Anx-A1 derived N-terminal peptide Ac.2-26 (100 μM) for 24 hrs.

[3] = test system: murine naïve lymph node T cells; assay: CD25 and CD69 cell surface expression by FACS; assay type: cell-based; settings: hrAnx-A1 150, 300, 600 nM; anti-CD3/CD28 1.25-5.0 μg/ml, 12 hrs; FIGS. 3C, 3D
Protocol: Purified lymph node T cells were pretreated with human recombinant Anx-A1 for 2 hours at 37° C. in Eppendorf tubes and then stimulated with plate-bound anti-CD3 and anti-CD28 as indicated in the figures. After 16 hours, the cells were stained with PE-conjugated anti-CD69 (clone H1.2F3) and FITC-conjugated anti-CD25 (clone PC61.5) diluted in FACS buffer (PBS containing 1% FCS and 0.02% […]). Intact cells were gated by using forward and side scatter and were analyzed with the CellQuest program (Becton Dickinson, Franklin Lakes, N.J.) on a FACScan flow cytometer. […]
Murine naïve lymph node T cells were stimulated with anti-CD3/CD28 at a concentration of 1.25 μg/ml (left column), 2.5 μg/ml (middle column) and 5.0 μg/ml (right column), in the absence of (upper panels) or in the presence of (lower panels) hrAnx-A1 (600 nM) for 12 hrs and then analyzed for CD25 and CD69 expression by FACS.
In FIG. 3D, murine naïve lymph node T cells were stimulated with the indicated concentration of anti-CD3/CD28 in the presence of 150 (X), 300 ( ? ) and 600 (◯) nM of hrAnx-A1 for 12 hours and then analysed for CD25 (left graph) and CD69 (right graph) expression by FACS.

[4] = test system: Activator Protein-1 (AP-1); assay: Electrophoretic Mobility Shift Assay for AP-1 activation in T cells; assay type: cell-based; settings: T cells stimulated with anti-CD3/CD28 1.25 μg/ml in presence of hrAnx-A1; FIG. 5A
Protocol: (§1) Nuclear extracts were harvested from 3×10^6 to 5×10^6 cells according to previously described protocols. Nuclear extracts (3 μg to 5 μg) were incubated with 1 μg (for NFAT) or 2 μg (for NF-κB and AP-1) of poly (dI:dC) in 20 μL binding buffer with ^32P end-labeled, double-stranded oligonucleotide probes (5×10^5 cpm), and fractionated on a 6% polyacrylamide gel (29:1 cross-linking ratio) in 0.5% TBE for 2.5 hours at 150 V. The NF-κB and AP-1 binding buffer (10×) contained 100 mM Tris-HCl, (pH 7.5), 500 mM NaCl, 10 mM EDTA, 50% glycerol, 10 mg/mL albumin, 30 mM GTP, 10 mM DTT. The NFAT binding buffer (10×) contained 100 mM Hepes (pH 7.9), 500 mM KCl, 1 mM EDTA, 1 mM EGTA, 50% glycerol, 5 mg/mL albumin, 1% Nonidet P-40, 10 mM DTT. The NF-κB and AP-1 double-stranded oligonucleotide probes were from Promega and the NFAT was from Santa Cruz Biotechnology (Santa Cruz, Calif.).
(§2) Investigations were carried out into how exogenous and endogenous Anx-A1 modulates T cell activation. The three major transcriptional activators of T cells, namely Activator Protein-1 (AP-1), Nuclear Factor-κB (NF-κB) and Nuclear Factor of Activated T cells (NFAT) were analysed in cells stimulated in presence of hrAnx-A1. […]

[5] = test system: Nuclear Factor-κB (NF-κB); assay: Electrophoretic Mobility Shift Assay for NF-κB activation in T cells; assay type: cell-based; settings: T cells stimulated with anti-CD3/CD28 1.25 μg/ml in presence of hrAnx-A1; FIG. 5A
Protocol: as §1, §2

[6] = test system: Nuclear Factor of Activated T cells (NFAT); assay: Electrophoretic Mobility Shift Assay for NFAT activation in T cells; assay type: cell-based; settings: T cells stimulated with anti-CD3/CD28 1.25 μg/ml in presence of hrAnx-A1; FIG. 5A
Protocol: as §1, §2

[7] = test system: naïve lymph node T cells; assay: Th1/Th2 differentiation in vitro, cytokine production on anti-CD3 restimulation; assay type: cell-based, mice; settings: Th1 or Th2 conditions, hrAnx-A1 600 nM, anti-CD3 5.0 μg/ml re-stimulation 8 h; FIG. 7A
Protocol: Primary murine T cells were prepared from lymph nodes by negative selection. Briefly, axillary, inguinal, and mesenteric lymph nodes were teased apart to make a single cell suspension, then washed and layered over Ficoll. The buffy coat was washed 2 times and then incubated with the antibody mix and the magnetic beads following the manufacturer's instructions (mouse T-cell negative isolation kit; Dynal, Bromborough, United Kingdom). In some experiments, cells were further purified to obtain naive CD62L^+ CD4^+ T cells by using the Miltenyi Biotec CD62L^+ CD4^+ T-cell isolation kit. Th0 conditions were created by T cells for 4 days in 6-well plates precoated with anti-CD3 (5 μg/mL) and anti-CD28 (5 μg/mL) in complete RPMI medium (10% fetal calf serum [FCS], 2 mM L-glutamine, and 100 units mL^−1 gentamycin) containing murine IL-2 (20 U/mL). Th1 conditions were created with murine IL-12 (3.4 ng/mL; eBioscience), IL-2 (20 U/mL; eBioscience), and anti-IL4 (clone 11B11; 2 μg/mL). Th2 conditions were created with IL-4 (3000 U/mL; Peprotech, Rocky Hill, N.J.), IL-2 (20 U/mL), and anti-IFN-γ (clone XMG1.2; 2 μg/mL). Jurkat cells were obtained from ATCC (Manassas, Va.) and were cultured in complete RPMI medium.
For Th1/Th2 cytokine production analysis, Th0/Th1/Th2 cells (10^6/mL) obtained after 4-day differentiation in skewing conditions and 1 day of resting in complete RPMI medium, were stimulated with plate-bound anti-CD3 (5 μg/mL) for 8 h in 24-well plates. Culture supernatants were collected and analyzed for IFN-γ, IL-2, IL-4 and IL-10 content by using Th1/Th2 panel ELISA kit (eBioscience). The IL-13 ELISA kit was also purchased from eBioscience.
Naïve lymph node T cells were differentiated in vitro in Th1 (black bars) or Th2 (white bars) conditions in presence or absence of hrAnx-A1 (600 nM) and then restimulated with plate-bound anti-CD3 (5.0 μg/ml) for 8 h to measure Th1 or Th2 cytokine production. Values are mean±S.E. of n=4-5 mice. **P<0.01

[8] = test system: DBA mice; assay: collagen-induced arthritis (CIA) model; assay type: in vivo; settings: 1 μg s.c. twice a day for 12 days after immunization with collagen, compared to PBS vehicle; FIGS. 8A, 8B
Protocol: Mice were injected with hrAnx-A1 daily for 12 days after immunization with collagen (time during which naïve cells differentiate in Th effector cells) and thereafter the progression of the disease upon antigen challenge was analyzed. […] Synchronization of disease onset was obtained by boosting with collagen on day 21, and clinical signs were evident from day 22 (day 1 of the onset of the diseases). Values are mean±S.E. of n=6-8 mice. Groups were compared using the Maim-Whitney test. *P<0.01

| Molecule | T cell proliferation ([1]; Ac.2-26, data not shown) | IL-2 production ([2]; Ac.2-26 100 μM, anti-CD3/CD28 0.6, 1.25 or 2.5 μg/ml, 24 hrs, FIG. 9) | cell proliferation ([1]; pre-treatment with hrAnx-A1, anti-CD3/CD28 5.0, 2.5 and 1.25 μg/ml, 24 hrs, FIG. 3A) | IL-2 production ([2]; anti-CD3/CD28 1.25 μg/ml, different concentrations of hrAnx-A1, 24 hrs, FIG. 3B) | cell surface expression of CD25 [3] | cell surface expression of CD69 [3] | activation of AP-1 [4] | activation of NF-κB [5] | activation of NFAT [6] | IFNγ production [7] | IL2 production [7] | IL4 release [7] | IL 10 release [7] | signs and symptoms of arthritis (paw volume, clinical score) [8] |
| --- | --- | --- | --- | --- | --- | --- | --- | --- | --- | --- | --- | --- | --- | --- |
| CH3CO-AMVSEFLKQA WFIENEEQEYVQTVK (Ac-AMVSEFLKQAWFIENEEQEYVQTVK; listed as Homo sapiens) [Ac.2-26, reference compound] | increased | increased | – | – | – | – | – | – | – | – | – | – | – | – |
| B1 | – | – | augmented | augmented | augmented | augmented | increased activation | increased activation | increased activation | increased | increased | decrease | decrease | exacerbated |
